In the supplement of paper PMC9170038:

Tested on: K4 kissing-loop RNA reporter
Assay: apparent KD of K4 kissing-loop reporter; higher = weaker reporter binding
Details: Eterna round: R107
Procedure: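 RNA-MaP round R107: designed RNA switches with theophylline, tryptophan, arginine or FMN aptamers are transcribed on-chip within common flanks. They are titrated with a labelled K4 kissing-loop RNA reporter in RNA-MaP buffer (100 mM Tris pH 7.5, 80 mM KCl, 4 mM MgCl2), without ligand or with the indicated ligand. Median apparent KD per design.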

[1] = input ligand: theophylline 20 uM
[2] = input ligand: tryptophan 2.4 mM
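Further: bound reporter read as fluorescence of individual clusters on recovered sequencing chips by microscopy, with normalized cluster intensities fitted with a binding model.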

| Sequence | apparent KD of K4 kissing-loop reporter (input ligand: FMN 200 uM) | apparent KD of K4 kissing-loop reporter (input ligand: arginine 13.2 mM) | apparent KD of K4 kissing-loop reporter (input ligand: none) | apparent KD of K4 kissing-loop reporter [1] | apparent KD of K4 kissing-loop reporter [2] |
| --- | --- | --- | --- | --- | --- |
| AGAUUCGACACGGCCGCCACUUCCGGUGGCUGGUGUCAUGGUGCGCGUGAGUGAUGUUUAUGUGGAAGGACCGGGUGUUGAGUCU [whbob_Ex_Tryp_B_w41] | 597 nM | 525 nM | 730 nM | 751 nM | 872 nM |
| AGCAAUAUCACGGCCGCCACUGAUUAUUGUUUUUAUAGUUAUAAAUCUUGCCAGUGAUGUUGGUUCAGGACCGGGUGAGUUAAUA [JR_SSTryptoB_Sub002] | 498 nM | 565 nM | 727 nM | 620 nM | 373 nM |
| AGCAGGAGUGAUGUUCCUGUGGCAUAAGUUCGAGGACCGGUACGGCCGCCACUCGUAACAUUAAUCCGUCCUUGAUCAGAUAAGA [theeternabot_sameState_KL_Trp_A_12] | 195 nM | 186 nM | 216 nM | 243 nM | 101 nM |
| AGCAGUCAACUCGAAACCAUCGAAGAUGGUCGAGGACCGGUACGGCCGCCACUCGGAGUGAUGUUCCGAAGACUGCAAAAUAAAA [#SwitchBubble 14] | 283 nM | 299 nM | 307 nM | 328 nM | 477 nM |
| AGCAGUCACUCGAAAAACCAUCGAAGAUGGCGAGGACCGGUACGGCCGCCACUCGGAGUGAUGUUCCGAAGACUGCAAAAUAAAA [#SwitchBubble 15] | 350 nM | 438 nM | 368 nM | 313 nM | 435 nM |
| AGCCGAAAGGCGAGUGCUGUCGCUCCGGAAGGAGCGCAGGAAACUGCAGGUAGGUCGCCGGAGUGAUGUUUUGGUGCAGCACUCA [Omei KL Arginine A Exc B v7] | 163 nM | 218 nM | 129 nM | 132 nM | 134 nM |
| AGGAGCGUGGGAUGAAAAUCGCACGCUCCUCGAGGACCGGUACGGCCGCCACUCGCUCGCGCCGAGUGAUGUUCGGCCGGCGAAC [#2 Same State - Tryptophan A Attempt #12 (HarryS)] | 265 nM | 244 nM | 312 nM | 217 nM | 556 nM |
| AGGAUCACGUCAGUGAUGUUGACAAGAGAUACCAGAGACGAAAGUCUCCCUUGGCAGCUCACUGUGAUCCGUGACAAAGGUCACA [Omei KL hio A SS C v1] | 146 nM | 63.2 nM | 98.3 nM | 154 nM | 76 nM |
| AGGAUCACGUCAGUGAUGUUGACGAGAGAUACCAGAGACGAAAGUCUCCCUUGGCAGCUCAUCGUGAUCCGUGACAAAGGUCACA [Omei KL hio A SS C v4] | 338 nM | 203 nM | 317 nM | 278 nM | 297 nM |
| AGGCACGAGCAAGGAUAUCGAGUAGAGUGAUGUUCUGCCUGGGUUGGCUCGGAAGAGCCUUCUCAGCGAGAAGGUGCUCGUGCCU [#2 Same State - FMN A Attempt #19 (HarryS)] | 235 nM | 604 nM | 747 nM | 923 nM | 888 nM |
| AGGGCUGAGAGCGAUACCAGCGGUAACUGUAUGGUCCAAUAGAGUGAUGUUUUAUAGAGCCGCCCUUGGCAGCGCAAUCUAUUAG [XTheo-B5] | 245 nM | 65.5 nM | 424 nM | 184 nM | 129 nM |
| AGGUACAAAAGUACCGCUAGAUCCACGGAAGGAGCGCCGGAAACGGCAGGUAGGUCGCCGGGCAGUGAUGUUGCCGGAUCUAGCA [Omei KL Arginine A SS A v4] | 161 nM | 155 nM | 231 nM | 240 nM | 198 nM |
| AGGUCCGAGCCCGGAAGGGCUCGGACCUGUUAGGAUAUGACGUUAUUCAGAAGGGAUGGGUGGAGUGAUGUUCCACCCGCAAGGG [#2 Same State - FMN A Attempt #9 (HarryS)] | 70 nM | 96.3 nM | 111 nM | 102 nM | 86.5 nM |
| AGGUUUUGAUCAGGAUAUGCAUUGACGAUGAGAAUAUAGUGAUGUUAUAUACUACGAAUUAGUAAAGUAGAAGGGAUUGAGGUUU [SSFMNB.aB] | 747 nM | 565 nM | 820 nM | 898 nM | 518 nM |
| AGUACAACUGCGGCCGCCACUCAACGCAGAUCAAAGAUCUGCAUUCACUCAGUGAUGUUGAGUGAGAGGACCGGGCAGUUGUACA [Omei KL Tryp B SS B v3] | 855 nM | 718 nM | 742 nM | 645 nM | 166 nM |
| AGUACAGACACGGCCGCCACUCAGAAGAAGAUAGUAGUGAUGUUACUGAUGAUGAGAAUAAUAAAGAGGACCGGGUGUUGUGCAA [#09 K4 Tryptophan B Same State] | 107 nM | 100 nM | 125 nM | 113 nM | 71.5 nM |
| AGUACGGACGCGGCCGCCACUCAGGAGAAGAAGGUAGUGAUGUUGCUUAUGGAGAGAUCAAUCAAGAGGACCGGGUGCCGUGCAA [#07 K4 Tryptophan B Same State] | 285 nM | 340 nM | 426 nM | 534 nM | 338 nM |
| AGUAGUCGACAAGGAUAUACUAGGAGAGACGUUUGCACAUAACCUGCCCUACGAAGUGAUGUUUCGGUAGAAGGUGUUGGGCUGU [theeternabot_exclusion_KL_FMN_B_34] | 96.5 nM | 67 nM | 87.6 nM | 82.9 nM | 71.5 nM |
| AGUCCACUCUAAAGAGUGGACCUAAGGGAUACCAGUGAUGUUGGUCACCCUUGGCAGCCCACUGUCAUCGAUAAAGAUGGCAGAA | 120 nM | 98.1 nM | 114 nM | 122 nM | 116 nM |
| AGUGAUAUAUGAGGAUAUGGGUUUGUUAAAGAGUUAGUUUUAGUGUUGUUUGGUUAGUGAUGUUAUUUAGAAGGCGUGAGUGAUG [foopmullin] | 97.2 nM | 82.5 nM | 76 nM | 115 nM | 72.9 nM |
| AGUGAUGUUGUGUUAUGUUAGUGAAGUGAUCGAGGACCGGUACGGCCGCCACUCGAGUGAUGAGUGAGUGAUGUUUGUUUAGGGA [popmullin] | 1100 nM | 674 nM | 1140 nM | 990 nM | 486 nM |
| AGUGAUGUUUUUUUUAAGAGUGAUGUUUUUCGAGGACCGGUACGGCCGCCACUCGAGUGAUGAGUGCGGUGUUGUGAUGUUUAGU [ewmullin] | 606 nM | 402 nM | 530 nM | 475 nM | 467 nM |

| Sequence | apparent KD of K4 kissing-loop reporter (input ligand: FMN 200 uM) | apparent KD of K4 kissing-loop reporter (input ligand: arginine 13.2 mM) | apparent KD of K4 kissing-loop reporter (input ligand: none) | apparent KD of K4 kissing-loop reporter [1] | apparent KD of K4 kissing-loop reporter [2] |
| --- | --- | --- | --- | --- | --- |
| AGUGAUGUUUUUUUUAAGAGUGAUGUUUUUCGAGGACCGGUACGGCCGCCACUCGAGUGAUGAGUGCGUUGUUGUGAUGUUUAGU [#11 K4 Tryptophan A Exclusion] | 438 nM | 362 nM | 473 nM | 413 nM | 246 nM |
| AGUGGAACUUGCAGGUAUCCACAACUGGAUACCAGCUCGGAAACGAGCCCUUGGCAGCCAGAUCUUGCAGUGAUGUUGCAAGUUC [Design10] | 392 nM | 323 nM | 392 nM | 412 nM | 381 nM |
| AGUGUGCAAAAGCACACUCAGAACAAGGACAAGGAUAUCUACUAAUAGAGAAGGUGUCCUUUCCUUAGUGAUGUUAAGGAUCUGA [Omei KL FMN A SS D v4] | 270 nM | 424 nM | 596 nM | 486 nM | 564 nM |
| AGUGUUAGGUUAGAUACCAGCCGUUCGUGAAUAGUCUUCGAACCGCCAGUGAUGUUGGCAGGCCCUUGGCAGCUAACAGAACAGA [Lagelare] | 212 nM | 199 nM | 198 nM | 159 nM | 208 nM |
| AGUUCUUGCCGAAGGAGCGAGGCAGAGUGAUGUUCUGCACGAGGUCGAAAGACCUCGCUGCCUCAGGUAGGUCGCGGCAUGAACA [Omei KL Arginine B Exc A v2] | 897 nM | 504 nM | 1130 nM | 614 nM | 1300 nM |
| AUAAAUUUGUAGUGAUGUUGCAAGUUAGUCAAGGAUAUCAGGAAACUGAGAAGGUGAUAUCUCCUUUACUUGCAACUAGGAGGAG [KL-SSFMN-A11] | 88 nM | 87.3 nM | 91 nM | 90.8 nM | 85.7 nM |
| AUAAUAUUGCGAGGAUAUCCUUCCCACGUCGAAGUACCGUGCUUGAUGGAGUGAUGUUCGAUCAGAGGAGAAGGCGCGGUGUUGU [Same State FMN B GF23] | 734 nM | 543 nM | 656 nM | 611 nM | 571 nM |
| AUACCUCUACGAGUGAUGUUUGUUGAGGAUACCAGCAUGUAUAGUUGCCCUUGGCAGCCUUGGCUCGUGCGCUCCCUCCGAACCG [theeternabot_exclusion_KL_Theo_A_30] | 296 nM | 240 nM | 291 nM | 277 nM | 247 nM |
| AUACGUUUAAGUGAUACCAGACAUGUGAGUGAUGUUUACAUAUAUAUUUAAUAUUUAGCUGUCCCUUGGCAGCACAGUUUAUUUA [JR_ExcTheophyB_Sub001] | 350 nM | 374 nM | 441 nM | 399 nM | 308 nM |
| AUAGAAAAGUGGCACCCUCACUAAAACAGUCGAGGACCGGUACGGCCGCCACUCGCGCGCUUUAGUGAUGUUAAAGCUAGGCGGA | 269 nM | 228 nM | 265 nM | 259 nM | 245 nM |
| AUAGCACCUUAUGAUACCAGACGAGUGAUGUUCUGUGGUGUCGUCACAAGGCAAUCGACUGUCCCUUGGCAGCAUCAUUCUAUAU [theeternabot_exclusion_KL_Theo_B_31] | 563 nM | 531 nM | 453 nM | 722 nM | 730 nM |
| AUAUCUAGAGUGAUGUUCUAGUAAGCUGAAGGAGCGGACGAAAGUCCAGGUAGGUCGCAGUGUUUUUACACCUCAUGUGUAGGAG [KL-SSArg-A7 #analogue] | 118 nM | 128 nM | 107 nM | 163 nM | 130 nM |
| AUAUCUGUUCGAAAGAACGGAUCUUCGGAAGGAGCGCGUGAAAACGCAGGUAGGUCGCCGAAGUUAUUAGGUAGUGAUGUUACCU [Arginine A K4 7] | 129 nM | 96.4 nM | 113 nM | 101 nM | 109 nM |
| AUAUGCAGGAGAAGGAGCGUCGUUGCAAGUGAUGUUUGCAAGCGAGCUUACUAUAUACGACGACAGGUAGGUCGCUCCUGCGUAA [Arg B Ex t2] | 68.8 nM | 61.7 nM | 64.8 nM | 58.1 nM | 67.2 nM |
| AUCGUUGCCAUUAGGACAUACGGUCCUGAACGAGGACCGGUACGGCCGCCACUCGAGCACACGAGUGAUGUUCGUGGGCAACGAU [Tryp A SS t1] | 131 nM | 107 nM | 137 nM | 136 nM | 358 nM |
| AUCUUGUUUGGAGGAUAUUCUUUAUUCGACAUAACCUUCUAUAAGGUGCAGUGAUGUUGCAAUAUAGGAGAAGGUCGAGUGAGAU [Exclusion FMN B GF 17] | 239 nM | 174 nM | 188 nM | 166 nM | 188 nM |
| AUGCAUCAGACUUGAUACGGUGAAAUAGCCCGAGGACCGGUACGGCCGCCACUCGGUCCAGUGAUGUUGGAUAAUUAAUCUAGGU [theeternabot_sameState_KL_Trp_A_34] | 197 nM | 256 nM | 297 nM | 294 nM | 82.4 nM |
| AUGUAUGAAUUAGGAUAUCGUGAUCCAUGCAUAUAUAUGAUAAAUGGAUAUGUCGUAGUGAUGUUACGAGAAGGAGUGUGGAGUA [KL-XFMN-B1] | 62.6 nM | 71.5 nM | 64.3 nM | 93 nM | 45 nM |
| AUGUCUGAUAGCAGUGAUGUUGCUUCAGAUACCAGACGAGAUCAUGUCCCUUGGCAGCUGACACGGCACGUGCUAGGUUAGAUGA [whbob_Ex_Theo_A_th71] | 117 nM | 94.4 nM | 118 nM | 102 nM | 102 nM |
| AUUAAUAUCACGGCCGCCACUGUAUAUUGUUUUUAUAUUUAGAAUAAUUGCCAGUGAUGUUGGAACAGGACCGGGUGAGUUUAUA [#28 K4 Tryptophan B Same State] | 511 nM | 434 nM | 626 nM | 402 nM | 323 nM |
| AUUAAUUUCAGAGGAUAUGCUUUAUUAUUAUUUUUAAAUAAUAAAUGCAGUGAUGUUGCUUAUUAUGCAGAAGGCUGAUUUAUAA [JR_SSFMNB_Sub014] | 119 nM | 625 nM | 603 nM | 586 nM | 545 nM |
